Target: mouse synaptosomes (synaptosome preparation carrying the BoNT/A acceptor complex)

“inactivated BoNT/A (toxoid) (from UniProt P0DPI1 2-1296)” gave a percent inhibition (maximum) of 98%.
